Measurements from patent US20220380407A1.

Assays:
Experiment in all cases: cell-based or functional assay
[1] = target: KLK5 (#1108-SE-010, R&D Systems) (UniProt Q9Y337)
human TMPRSS2 (human) = human TMPRSS2 (human) (UniProt O15393)
[2] = target: matriptase (#3946-SE-010, R&D Systems) (UniProt Q9Y5Y6)
[3] = target: activated hepsin (#4776-SE-010, R&D Systems) (UniProt P05981)
[4] = target: recombinant N-terminal His-tag HGFA serine protease domain (UniProt Q04756)
[5] = target: Factor Xa (#1063-SE-010, R&D Systems) (UniProt P00742)
[6] = target: recombinant thrombin (#1473-SE-010, R&D Systems) (UniProt P00734)

Chain of recombinant N-terminal His-tag HGFA serine protease domain (Q04756 373-655, form in doubt): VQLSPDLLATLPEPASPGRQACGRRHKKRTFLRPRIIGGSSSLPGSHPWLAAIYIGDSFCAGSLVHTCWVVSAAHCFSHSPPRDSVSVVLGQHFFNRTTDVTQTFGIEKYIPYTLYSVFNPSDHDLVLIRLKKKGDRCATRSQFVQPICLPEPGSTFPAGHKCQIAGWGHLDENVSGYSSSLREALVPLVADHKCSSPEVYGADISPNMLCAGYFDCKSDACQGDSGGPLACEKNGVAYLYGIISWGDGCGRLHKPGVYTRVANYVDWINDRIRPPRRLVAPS
Chain of activated hepsin (#4776-SE-010, R&D Systems) (P05981 45-417 limits assumed): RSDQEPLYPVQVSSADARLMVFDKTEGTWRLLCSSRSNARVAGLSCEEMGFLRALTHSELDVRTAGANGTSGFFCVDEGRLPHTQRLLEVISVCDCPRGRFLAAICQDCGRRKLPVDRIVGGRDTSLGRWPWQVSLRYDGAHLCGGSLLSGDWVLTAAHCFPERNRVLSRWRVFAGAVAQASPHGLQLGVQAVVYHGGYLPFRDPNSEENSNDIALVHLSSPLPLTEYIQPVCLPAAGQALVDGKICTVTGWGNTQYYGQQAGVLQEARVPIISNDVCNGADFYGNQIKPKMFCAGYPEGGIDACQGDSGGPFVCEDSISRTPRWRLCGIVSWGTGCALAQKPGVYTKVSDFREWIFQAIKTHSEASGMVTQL
Chain of matriptase (#3946-SE-010, R&D Systems) (Q9Y5Y6 615-855 limits assumed): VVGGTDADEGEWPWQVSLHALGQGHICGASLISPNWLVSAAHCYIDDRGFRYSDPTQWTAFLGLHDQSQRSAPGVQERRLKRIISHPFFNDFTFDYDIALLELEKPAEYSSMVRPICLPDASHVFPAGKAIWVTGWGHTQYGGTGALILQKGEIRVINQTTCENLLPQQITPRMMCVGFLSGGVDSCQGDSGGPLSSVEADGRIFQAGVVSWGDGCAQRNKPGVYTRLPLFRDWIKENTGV
Chain of KLK5 (#1108-SE-010, R&D Systems) (Q9Y337 23-293 limits assumed): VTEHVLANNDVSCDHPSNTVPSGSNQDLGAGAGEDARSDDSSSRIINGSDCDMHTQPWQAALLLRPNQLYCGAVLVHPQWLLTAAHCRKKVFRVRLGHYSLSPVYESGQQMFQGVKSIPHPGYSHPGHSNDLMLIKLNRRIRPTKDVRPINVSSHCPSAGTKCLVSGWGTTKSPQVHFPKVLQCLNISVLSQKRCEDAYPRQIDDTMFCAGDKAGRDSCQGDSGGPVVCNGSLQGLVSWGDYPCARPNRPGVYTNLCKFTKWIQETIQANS
Chain of Factor Xa (#1063-SE-010, R&D Systems) (P00742 41-488 limits assumed): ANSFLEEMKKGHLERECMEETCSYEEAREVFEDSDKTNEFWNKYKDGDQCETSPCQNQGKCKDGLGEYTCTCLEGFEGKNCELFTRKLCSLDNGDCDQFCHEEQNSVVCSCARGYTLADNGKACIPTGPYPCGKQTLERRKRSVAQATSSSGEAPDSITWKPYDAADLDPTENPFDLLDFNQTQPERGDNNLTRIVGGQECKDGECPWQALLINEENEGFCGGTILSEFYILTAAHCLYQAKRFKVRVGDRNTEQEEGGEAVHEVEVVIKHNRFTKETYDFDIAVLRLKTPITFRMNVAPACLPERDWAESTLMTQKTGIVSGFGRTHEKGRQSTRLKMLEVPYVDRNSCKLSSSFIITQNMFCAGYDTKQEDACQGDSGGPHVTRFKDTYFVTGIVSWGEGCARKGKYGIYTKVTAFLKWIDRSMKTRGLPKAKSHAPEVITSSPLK
Chain of human TMPRSS2 (human) (O15393 whole entry): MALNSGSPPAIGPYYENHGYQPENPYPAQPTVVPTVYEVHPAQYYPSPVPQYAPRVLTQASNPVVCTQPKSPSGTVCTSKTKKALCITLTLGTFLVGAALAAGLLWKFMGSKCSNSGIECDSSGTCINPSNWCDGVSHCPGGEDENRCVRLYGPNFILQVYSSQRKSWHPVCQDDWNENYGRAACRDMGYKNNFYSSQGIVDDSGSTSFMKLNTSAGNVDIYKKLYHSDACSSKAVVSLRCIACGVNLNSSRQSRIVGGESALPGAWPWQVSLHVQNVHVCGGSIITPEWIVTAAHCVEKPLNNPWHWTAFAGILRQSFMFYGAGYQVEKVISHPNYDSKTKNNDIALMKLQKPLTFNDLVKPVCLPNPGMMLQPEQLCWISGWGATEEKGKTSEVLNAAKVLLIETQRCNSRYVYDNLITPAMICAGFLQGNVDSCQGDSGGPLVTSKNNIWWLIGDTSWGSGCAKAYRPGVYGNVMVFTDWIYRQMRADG

## Leupeptin (peptide)
[1]
  KLK5 IC50: > 20000 nM

## Cyclo(allylLY)R-kbt, VD4051 (peptide)
Human TMPRSS2 (human)
  Calu-3 EC50: 565 nM
[2]
  Matriptase (IC50 nM): 80.2 nM
  Matriptase IC50: 14 nM
[3]
  Hepsin (IC50 nM): 102 nM
  Hepsin IC50: 20 nM
[4]
  HGFA (IC50 nM): > 20000 nM
  HGFA IC50: > 20000 nM
[5]
  Factor Xa* (IC50 nM): 8810 nM
[6]
  Thrombin* (IC50 nM): > 20000 nM
